According to paper PMC7093153 (eLife, 2020):

B1: Swi5-Sfr1 complex (wild type, full-length Sfr1) (complex, S. pombe)
chain 1: MEKSQLESRVHLLEQQKEQLESSLQDALAKLKNRDAKQTVQKHIDLLHTYNEIRDIALGMIGKVAEHEKCTSVELFDRFGVNGSE
chain 2: MSQTINSELNENATSQCKEDLKVSLSESDLRDSQGQLGIENPPKCNNSGNHSDNLGFIEQSETVHPENEKALTPDLRDTKIHTSLPITTPFSKKRAREAKNILLKPFKSPLRQTASPQVADTNLKPSLAVTNLNSDETNTSSEPVTSPLRTTPNSIKRQKRLFKSPISNCLNPKSDPEITQLLSRRLKLEKEVRNLQEQLITAETARKVEAKNEDKDLQTLIQKWKNAAQQAAEVLFKPMAERIRLAGGVTQSFRIEEGENKGQIQEVRTEFTMSMFLNQFGVPVHLMSFDEENGDWKS
B2: Rad51 (S. pombe), purified (natural protein, UniProt P36601 1-365, looked up)
chain: MADTEVEMQVSAADTNNNENGQAQSNYEYDVNVQDEEDEAAAGPMPLQMLEGNGITASDIKKIHEAGYYTVESIAYTPKRQLLLIKGISEAKADKLLGEASKLVPMGFTTATEYHIRRSELITITTGSKQLDTLLQGGVETGSITELFGEFRTGKSQICHTLAVTCQLPIDMGGGEGKCLYIDTEGTFRPVRLLAVADRYGLNGEEVLDNVAYARAYNADHQLELLQQAANMMSESRFSLLVVDSCTALYRTDFSGRGELSARQMHLARFMRTLQRLADEFGIAVVITNQVVAQVDGISFNPDPKKPIGGNILAHSSTTRLSLRKGRGEQRICKIYDSPCLPESEAIFAINSDGVGDPKEIIAPV

What was measured:
[1] = biological target: B2; experiment: cell-based or functional assay
[2] = biological target: B1; experiment: pull-down
SEC = biological target: the molecule itself; experiment: SEC

Row | Rad51-dependent ATP turnover, Swi5-Sfr1:Rad51 ratio of 1:20 [1] [fold] | binding result [2] | Binder | binding result (SEC)
1 | 1.85 | – | B1 | –
2 | – | binds | B2 | binds
